The record followed here is patent publication US20190300590A1 (PROTAGONIST THERAPEUTICS, published 2019).

Where two headings read alike, the source gives them in different places. *1 amine or outer side, *2 acyl side, *3 side chain or, on linkers, in order; H or OH if unused. Bridges are numbered along the chain shown (N, C = ends). Primed or numbered codes have the meaning given here. [ ]: non-standard residue; d: D form. Phe(4-OMe) = 4-methoxy-L-phenylalanine (O-methyl-L-tyrosine), COc1ccc(C[C@H](N[*:1])C(=O)[*:2])cc1; Phe(4-OMe)(4) = O-methyl-L-tyrosine, COc1ccc(C[C@H](N[*:1])C(=O)[*:2])cc1; Phe(3,4-Cl2) = N[C@@H](Cc1ccc(Cl)c(Cl)c1)C(=O)O; Tyr(Ph) = N[C@@H](Cc1ccc(Oc2ccccc2)cc1)C(=O)O; 1Nal = N[C@@H](Cc1cccc2ccccc12)C(=O)O; 2Nal = N[C@@H](Cc1ccc2ccccc2c1)C(=O)O; AEF = NCCOc1ccc(C[C@H](N)C(=O)O)cc1; pGlu = O=C1CC[C@@H](C(=O)O)N1; αMeOrn = C[C@](N)(CCCN)C(=O)O; αMeK = C[C@](N)(CCCCN)C(=O)O; Orn = NCCC[C@H](N)C(=O)O; Abu = CC[C@H](N)C(=O)O; Dap = NC[C@H](N)C(=O)O; Aib = CC(C)(N)C(=O)O

In test [1] the target is T1, IL23R_huFC (human, UniProt Q5VWK5 24-353).
T1 sequence (looked up): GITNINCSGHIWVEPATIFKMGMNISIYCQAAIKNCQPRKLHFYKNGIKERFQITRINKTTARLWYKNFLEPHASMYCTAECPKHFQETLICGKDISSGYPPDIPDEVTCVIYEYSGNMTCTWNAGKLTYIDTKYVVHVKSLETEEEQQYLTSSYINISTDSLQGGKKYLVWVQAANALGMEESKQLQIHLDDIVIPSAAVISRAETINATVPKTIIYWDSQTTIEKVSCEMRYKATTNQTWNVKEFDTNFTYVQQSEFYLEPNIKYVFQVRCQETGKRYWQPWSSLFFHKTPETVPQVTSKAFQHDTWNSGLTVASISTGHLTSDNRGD
Nature of the test: human ELISA vs IL-23.

Test [2] has as its target T2, IL-23R on human cells (IL-23R-expressing DB cells; human NK cells) (human, UniProt Q5VWK5 24-629).
T2 sequence (looked up): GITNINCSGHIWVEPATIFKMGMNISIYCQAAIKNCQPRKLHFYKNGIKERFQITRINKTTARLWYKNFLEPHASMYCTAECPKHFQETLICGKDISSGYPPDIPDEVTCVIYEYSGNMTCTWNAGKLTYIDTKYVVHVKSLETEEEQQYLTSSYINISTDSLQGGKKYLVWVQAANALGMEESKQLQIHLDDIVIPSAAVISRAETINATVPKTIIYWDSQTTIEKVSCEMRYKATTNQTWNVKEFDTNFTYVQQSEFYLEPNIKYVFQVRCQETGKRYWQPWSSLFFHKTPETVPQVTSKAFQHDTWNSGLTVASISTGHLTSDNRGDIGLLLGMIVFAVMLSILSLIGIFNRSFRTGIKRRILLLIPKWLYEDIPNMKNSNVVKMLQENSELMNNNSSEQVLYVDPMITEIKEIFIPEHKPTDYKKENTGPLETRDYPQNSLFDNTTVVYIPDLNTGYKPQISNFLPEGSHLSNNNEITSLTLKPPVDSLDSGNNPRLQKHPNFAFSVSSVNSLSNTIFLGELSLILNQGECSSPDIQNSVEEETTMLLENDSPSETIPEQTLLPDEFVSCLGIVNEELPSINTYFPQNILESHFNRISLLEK
Put plainly: cell-based or functional assay.

Test [3] addresses T1, IL23R_huFC. Nature of the test: human ELISA vs IL-23. This is another data set of the same source.
A further test addresses Rat IL-23R_huFC (rat). Put plainly: rat ELISA vs IL-23.

B1: Ac-Cyclo-[[Abu]-QTWQC]-[Phe(4-Phenoxy)]-[2-Nal][α-MeLys]-[Lys(Ac)]-NG-NH2 (peptide)
peptide: Ac-[Abu]QTWQC[Tyr(Ph)][2Nal][αMeK]K(Ac)NG-NH2
modifications: thioether 1-6
In the test with IL23R_huFC [1], B1 registered an IC50 of 100 to 1000 nM.

B2: Ac-Cyclo-[[Abu]-QTWQC]-[Phe[4-(2-aminoethoxy)]]-W-[Aib]-ENN-NH2 (peptide)
peptide: Ac-[Abu]QTWQC[AEF]W[Aib]ENN-NH2
modifications: thioether 1-6
In the case of B2, the “pStat3 HTRF IC50” value in test [2] is < 10 nM. The same molecule displayed an IC50 in the test with IL23R_huFC [3] of 10 to 25 nM.

B3: Ac-Cyclo-[[Abu]-QTWQC]-[Phe[4-(2-aminoethoxy)]]-W-[α-Me-Orn]-[Lys(Ac)]-NG-NH2 (peptide)
peptide: Ac-[Abu]QTWQC[AEF]W[αMeOrn]K(Ac)NG-NH2
modifications: thioether 1-6
Turning to B3, in the test with IL23R_huFC [3], the IC50 lay in the range of 10 to 25 nM.

B4: Ac-Cyclo-[[Abu]-QT-[1-Nal]-QC]-[Phe(4-OMe)]-[2-Nal]-[α-MeLys]-[Lys(Ac)]-NG-NH2 (peptide)
peptide: Ac-[Abu]QT[1Nal]QC[Phe(4-OMe)(4)][2Nal][αMeK]K(Ac)NG-NH2
modifications: thioether 1-6
Regarding B4, the IC50 in the test with IL23R_huFC [1] fell in the range of 100 to 1000 nM.

B5: Ac-Cyclo-[[Abu]-QTWQC]-[Phe[4-(2-aminoethoxy)]]-W-[Aib]-ENG-NH2 (peptide)
peptide: Ac-[Abu]QTWQC[AEF]W[Aib]ENG-NH2
modifications: thioether 1-6
On to B5, for which, in test [2], the “pStat3 HTRF IC50” value was < 10 nM. In the test with IL23R_huFC [3], this molecule had an IC50 of 10 to 25 nM.

B6: Ac-Cyclo-[[Abu]-DapTWQC]-[Phe[4-(2-aminoethoxy)]]-[Phe[4-(2-aminoethoxy)]]-[α-MeLys]-[Lys(Ac)]-NG-NH2 (peptide)
peptide: Ac-[Abu][Dap]TWQC[AEF][AEF][αMeK]K(Ac)NG-NH2
modifications: thioether 1-6
Consider B6, for which the concentration for half-maximal inhibition (IC50) in the test with IL23R_huFC [1] fell in the range of 100 to 1000 nM.

B7: Ac-Cyclo-[[Abu]-QTWQC]-[Phe(4-OMe)]-W-[α-MeLys]-[Lys(Ac)]-NGE-NH2 (peptide)
peptide: Ac-[Abu]QTWQC[Phe(4-OMe)]W[αMeK]K(Ac)NGE-NH2
modifications: thioether 1-6
For B7, in the test with IL23R_huFC [1], the 50% inhibitory concentration (IC50) fell in the range of 100 to 1000 nM.

B8: Ac-Cyclo-[[Abu]-QTWQC]-Phe(3,4-Cl2)[2-Nal][α-MeLys]-Lys(Ac)]NG-NH2 (peptide)
peptide: Ac-[Abu]QTWQC[Phe(3,4-Cl2)][2Nal][αMeK]K(Ac)NG-NH2
modifications: thioether 1-6
For B8, the concentration for half-maximal inhibition (IC50) with IL23R_huFC [1] fell in the range of 100 to 1000 nM.

B9: Ac-Cyclo-[[Abu]-QTWQC]-[Phe[4-(2-aminoethoxy)]]-W-[Orn]-[Dap]-NG-NH2 (peptide)
peptide: Ac-[Abu]QTWQC[AEF]W[Orn][Dap]NG-NH2
modifications: thioether 1-6
In the test with IL23R_huFC [1], B9 yielded an IC50 of 100 to 1000 nM.

B10: Ac-Cyclo-[[Abu]-QTWQC]-[Phe(4-OMe)]-[2-Nal]-[Aib]-[Lys(Ac)]-NG-NH2 (peptide)
peptide: Ac-[Abu]QTWQC[Phe(4-OMe)][2Nal][Aib]K(Ac)NG-NH2
modifications: thioether 1-6
With B10, in test [2], the “pStat3 HTRF IC50” value is < 10 nM. Also, the IC50 with Rat IL-23R_huFC was in the range of 25 to 100 nM; in the test with IL23R_huFC [3], 10 to 25 nM.

B11: Ac-Cyclo-[[Abu]-QTWQC]-[Phe(4-OMe)]-[2-Nal]-[Orn]-[Lys(Ac)]-NG-NH2 (peptide)
peptide: XQTWQCFXXKNG
modifications: as bracketed in name; thioether cyclo
B11 showed an IC50 in the test with IL23R_huFC [1] of 100 to 1000 nM.

B12: Ac-Cyclo-[[Abu]-QTWQC]-[Phe[4-(2-aminoethoxy)]]-[2-Nal]-[Orn]-[Lys(Ac)]-NG-NH2 (peptide)
peptide: XQTWQCFXXKNG
modifications: as bracketed in name; thioether cyclo
B12: the IC50 with IL23R_huFC [3] is 10 to 25 nM.

B13: Ac-Cyclo-[[Abu]-QTWQC]-[Phe[4-(2-aminoethoxy)]]-[2-Nal]-[Aib]-E-[Lys(Ac)]-G-NH2 (peptide)
peptide: Ac-[Abu]QTWQC[AEF][2Nal][Aib]EK(Ac)G-NH2
modifications: thioether 1-6
For the molecule B13, the “pStat3 HTRF IC50” value in test [2] was < 10 nM. The same molecule had an IC50 in the test with IL23R_huFC [3] of 10 to 25 nM.

B14: Ac-Cyclo-[[Abu]-QTWQC]-[Phe[4-(2-aminoethoxy)]]-[2-Nal]-[Aib]-[Lys(Ac)]-QG-NH2 (peptide)
peptide: Ac-[Abu]QTWQC[AEF][2Nal][Aib]K(Ac)QG-NH2
modifications: thioether 1-6
As to B14, in test [2], the “pStat3 HTRF IC50” value was < 10 nM. This molecule had an IC50 with IL23R_huFC [3] of 10 to 25 nM.

B15: Ac-Cyclo-[[Abu]-QTWQC]-[Phe[4-(2-aminoethoxy)]]-[2-Nal]-[α-MeLys]-[Dap(pyroglutamic acid)]-NG-NH2 (peptide)
peptide: Ac-[Abu]QTWQC[AEF][2Nal][αMeK][Dap](pGlu)NG-NH2
modifications: thioether 1-6
Turning to B15, the “pStat3 HTRF IC50” value in test [2] was < 10 nM. This molecule also displayed an IC50 in the test with IL23R_huFC [3] of 10 to 25 nM.

B16: Ac-Cyclo-[[Abu]-[Dap]-TWQC]-[Phe[4-(2-aminoethoxy)]]-[Phe(4-Phenoxy)]-[α-MeLys]-[Lys(Ac)]-NG-NH2 (peptide)
peptide: Ac-[Abu][Dap]TWQC[AEF][Tyr(Ph)][αMeK]K(Ac)NG-NH2
modifications: thioether 1-6
Regarding B16, the half-maximal inhibitory concentration (IC50) with IL23R_huFC [1] was in the range of 100 to 1000 nM.

B17: Ac-Cyclo-[[Abu]-QT-[2-Nal]-QC]-[Phe(4-OMe)]-[2-Nal]-[α-MeLys]-[Lys(Ac)]-NG-NH2 (peptide)
peptide: Ac-[Abu]QT[2Nal]QC[Phe(4-OMe)(4)][2Nal][αMeK]K(Ac)NG-NH2
modifications: thioether 1-6
As for B17, the IC50 in the test with IL23R_huFC [1] was 100 to 1000 nM.

B18: Ac-Cyclo-[[Abu]-QT-[1,2,3,4-tetrahydro-norharman]-QC]Phe[4-(2-aminoethoxy)]]-[2-Nal]-[α-MeLys]-ENG-NH2 (peptide)
peptide: XQTXQCFXKENG
modifications: as bracketed in name; thioether cyclo
B18: the IC50 with IL23R_huFC [1] was in the range of 100 to 1000 nM.
